From patent publication EP4786494A1

What was measured:
[1] = biological target: human FGFR2 on cells (KATO-III gastric cancer cells; SNU-16 cells; Ba/F3 cells engineered to express human FGFR2b) (human) (UniProt P21802); experiment: flow cytometry on KATO-III cells expressing human FGFR2
[2] = biological target: human FGFR2-his protein (huFGFR2-his) (human); experiment: BLI epitope binning on FGFR2-his (HISK sensor), 200 nM antibodies; competitor: huG11B8-5
[3] = biological target: human FGFR2-his protein (huFGFR2-his) (human); experiment: BLI epitope binning on FGFR2-his (HISK sensor), 200 nM antibodies; competitor: bemarituzumab
[4] = biological target: human FGFR2-his protein (huFGFR2-his) (human); experiment: BLI epitope binning on FGFR2-his (HISK sensor), 200 nM antibodies; competitor: huA1B2-3

Chain of human FGFR2-his protein (huFGFR2-his) (human) (chain, as listed by the source limits assumed): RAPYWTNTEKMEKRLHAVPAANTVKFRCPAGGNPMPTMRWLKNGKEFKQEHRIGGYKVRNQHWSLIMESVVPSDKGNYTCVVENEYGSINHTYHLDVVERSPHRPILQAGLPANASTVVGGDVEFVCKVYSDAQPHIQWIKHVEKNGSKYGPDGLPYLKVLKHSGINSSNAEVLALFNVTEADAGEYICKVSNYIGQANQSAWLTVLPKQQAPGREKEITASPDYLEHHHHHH

Binder	EC50 [1] [nM]	epitope binning value (%), not given [2] [%]	epitope binning value (%), not given [3] [%]	epitope binning value (%), not given [4] [%]
antibody G11B8 (murine chimeric anti-FGFR2 antibody) (antibody, human IgG1, kappa, V domains shown) VH: EVQLQQSGPELVKPGASVKIPCKASGYTFTDYNMDWVKQSHGKSLEWIGDINPKNGETFYNQKFKGKATLTVDRSSNTAYMELRSLTSEDTAVYFCAKRDLNWYFDYWGQGTTLTVSS VL: DIQMTQSSSYLSVSLGGRVTITCKASDHINNWLAWYQQKPGNAPRLLISGATSLETGVPSRFSGSGSGKDYTLSITSLQTEDVATYYCQQYWSTPWTFGGGTKLEIKR	0.949	–	–	–
antibody H3F7-a (murine chimeric anti-FGFR2 antibody) (antibody, human IgG1, kappa, V domains shown) VH: EVQLQQSGPELVKPGASVKIPCKASGYTFTDYNMDWVKQSHGKSLEWIGDINPKNGETFYNQKFKGKATLTVDRSSSTAYMELRSLTSEDTAVYFCAKRDLNWYFDYWGQGTTLTVSS VL: DIQMTQSSSYLSVSLGGRVTITCKASDHINNWLAWYQQKPGNAPRLLISGATSLETGVPSRFSGSGSGKDYTLSITSLQTEDVATYYCQQYWSTPWTFGGGTKLEIKR	1.09	–	–	–
bemarituzumab (antibody, human IgG1, kappa, V domains shown) VH: QVQLVQSGAEVKKPGSSVKVSCKASGYIFTTYNVHWVRQAPGQGLEWIGSIYPDNGDTSYNQNFKGRATITADKSTSTAYMELSSLRSEDTAVYYCARGDFAYWGQGTLVTVSS VL: DIQMTQSPSSLSASVGDRVTITCKASQGVSNDVAWYQQKPGKAPKLLIYSASYRYTGVPSRFSGSGSGTDFTFTISSLQPEDIATYYCQQHSTTPYTFGQGTKLEIKR	–	36.8	7.8	106

Further lines, results first:

EC50 [1] [nM]	epitope binning value (%), not given [2] [%]	epitope binning value (%), not given [3] [%]	epitope binning value (%), not given [4] [%]	Binder
0.336	–	–	–	antibody A1B2 (murine chimeric anti-FGFR2 antibody) (antibody, human IgG1, kappa, V domains shown) VH: EVQLQQSGAELVRPGASVKLSCTASGFNIKDYYMHWVKQRPEQGLEWIGRIDPEDGDTEYAPKFQGKATMTADTSSNTAYLQLSSLTSEDTAVYYCTTYYYVSTYEDYWGQGTTLTVSS VL: QIVLTQSPAIMSASLGEEITLTCSASSSVSHMHWYQQKSGTSPKLLIYSTSNLASGVPSRFSGSGSGTFYSLTISSVEAEDAADYYCHHWSSWTFGGGTKLEIKR
14.4	–	–	–	antibody F6B6 (murine chimeric anti-FGFR2 antibody) (antibody, human IgG1, kappa, V domains shown) VH: QVQLKQSGPGLVQPSQSLSITCTVSGFSLTNYGVHWVRQSPGKGLEWLGVIWSDGSTDYDAAFISRLSISTDNSKSQVFFKMNSLQAADTAIYYCARKGDYDYDNYAMDYWGQGTSVTVSS VL: DVVITQSPATLSVTPGDSVSLSCRASQSISNNLHWYQQKSHESPRLLIKYASQSISGIPSRFSGSGSGTDFTLSINSVETEDFGMYFCQQSNSWPLTFGAGTKLELKR
7.37	–	–	–	antibody D12D8 (murine chimeric anti-FGFR2 antibody) (antibody, human IgG1, kappa, V domains shown) VH: QVQLQQSGAELARPGASVKLSCKASGYTFTNYGISWVKQRTGQGLEWIGEIYPRSGNTYYNEKFKGKATLTADKSSSTAYMELRSLTSEDSAVYFCARGDYSNSDYWGQGTTLTVSS VL: DIQMTQTTSSLSASLGDRVTISCRASQDITDHLNWYQQKPDGTVKLLIYYTSRLHSGVPSRFSGSGSGTDYSLTISNLEQEDIATYFCQQGNTLPRTFGGGTKLEIKR
–	42.6	95.7	10.2	humanized monoclonal antibody huA1B2-3 (antibody, human IgG1, kappa, V domains shown) VH: EVQLVQSGAEVKKPGATVKISCKASGFNIKDYYMHWVQQAPGKGLEWMGRIDPEDGDTEYAEKFQGRVTITADTSTNTAYMELSSLRSEDTAVYYCTTYYYVSTYEDYWGQGTTVTVSS VL: EIVLTQSPATLSLSPGERATLSCRASSSVSHMHWYQQKPGQAPKLLIYSTSNLASGVPARFSGSGSGTDYTLTISSLEPEDFAVYYCHHWSSWTFGGGTKVEIKR
